How the values were obtained:
Experiment in all cases: cell_activity; attB x attP EGFP inversion reporter, HEK293FT
Int30 = biological target: T1, Int30 (Bacillus cereus AH187); settings: tags: C-terminal GS linker-SV40 NLS; chain copies: 4
T1 chain: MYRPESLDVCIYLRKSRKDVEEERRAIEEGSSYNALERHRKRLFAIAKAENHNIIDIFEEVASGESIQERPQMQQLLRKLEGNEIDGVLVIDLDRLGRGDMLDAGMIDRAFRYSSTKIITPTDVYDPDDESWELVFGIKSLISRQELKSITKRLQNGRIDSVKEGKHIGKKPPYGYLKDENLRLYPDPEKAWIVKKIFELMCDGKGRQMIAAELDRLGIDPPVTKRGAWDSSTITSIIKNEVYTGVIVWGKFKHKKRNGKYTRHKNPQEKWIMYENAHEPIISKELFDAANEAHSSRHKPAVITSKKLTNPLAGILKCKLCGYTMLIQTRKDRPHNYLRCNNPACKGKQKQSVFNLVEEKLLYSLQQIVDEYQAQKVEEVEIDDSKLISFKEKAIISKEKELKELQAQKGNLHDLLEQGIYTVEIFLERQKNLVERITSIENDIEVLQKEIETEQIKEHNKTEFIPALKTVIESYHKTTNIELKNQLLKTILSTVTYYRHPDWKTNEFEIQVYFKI

Int26 = Int26 (Clostridium botulinum F str. Langeland); settings: tags: C-terminal GS linker-SV40 NLS
Int29 = biological target: T2, Int29 (Bacillus weihenstephanensis KBAB4); settings: tags: C-terminal GS linker-SV40 NLS; chain copies: 4
T2 chain: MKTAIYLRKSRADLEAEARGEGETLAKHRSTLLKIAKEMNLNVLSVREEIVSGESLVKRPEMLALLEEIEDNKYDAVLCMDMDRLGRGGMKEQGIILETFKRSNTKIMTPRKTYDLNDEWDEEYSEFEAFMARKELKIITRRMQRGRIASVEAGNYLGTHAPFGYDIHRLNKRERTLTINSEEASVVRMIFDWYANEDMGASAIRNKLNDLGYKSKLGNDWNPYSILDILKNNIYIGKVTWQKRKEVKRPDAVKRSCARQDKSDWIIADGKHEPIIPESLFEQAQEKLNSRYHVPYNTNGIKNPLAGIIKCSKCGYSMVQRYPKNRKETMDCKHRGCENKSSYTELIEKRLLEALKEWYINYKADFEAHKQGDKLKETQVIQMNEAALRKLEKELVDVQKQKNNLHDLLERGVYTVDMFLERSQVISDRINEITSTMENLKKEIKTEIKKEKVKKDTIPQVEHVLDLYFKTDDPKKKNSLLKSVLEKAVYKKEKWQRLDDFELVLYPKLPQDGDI

Int4 = biological target: T3, Int4 (Streptococcus equi subsp. equi 4047); settings: tags: C-terminal GS linker-SV40 NLS
T3 chain: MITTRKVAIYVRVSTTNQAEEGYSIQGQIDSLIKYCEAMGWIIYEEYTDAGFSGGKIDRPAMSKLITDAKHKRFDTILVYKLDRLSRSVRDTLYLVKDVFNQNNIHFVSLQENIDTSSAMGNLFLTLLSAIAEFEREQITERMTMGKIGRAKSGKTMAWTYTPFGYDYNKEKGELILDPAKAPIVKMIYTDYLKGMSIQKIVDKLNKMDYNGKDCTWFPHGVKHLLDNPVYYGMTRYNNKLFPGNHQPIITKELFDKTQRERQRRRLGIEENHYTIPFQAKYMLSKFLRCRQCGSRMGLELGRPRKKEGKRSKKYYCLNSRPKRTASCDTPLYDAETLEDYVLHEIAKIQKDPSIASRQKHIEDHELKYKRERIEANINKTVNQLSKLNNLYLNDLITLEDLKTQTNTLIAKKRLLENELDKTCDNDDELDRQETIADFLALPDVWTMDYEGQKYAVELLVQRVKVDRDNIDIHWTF

Int23 = biological target: T4, Int23 (Clostridium difficile 630); settings: tags: C-terminal GS linker-SV40 NLS
T4 chain: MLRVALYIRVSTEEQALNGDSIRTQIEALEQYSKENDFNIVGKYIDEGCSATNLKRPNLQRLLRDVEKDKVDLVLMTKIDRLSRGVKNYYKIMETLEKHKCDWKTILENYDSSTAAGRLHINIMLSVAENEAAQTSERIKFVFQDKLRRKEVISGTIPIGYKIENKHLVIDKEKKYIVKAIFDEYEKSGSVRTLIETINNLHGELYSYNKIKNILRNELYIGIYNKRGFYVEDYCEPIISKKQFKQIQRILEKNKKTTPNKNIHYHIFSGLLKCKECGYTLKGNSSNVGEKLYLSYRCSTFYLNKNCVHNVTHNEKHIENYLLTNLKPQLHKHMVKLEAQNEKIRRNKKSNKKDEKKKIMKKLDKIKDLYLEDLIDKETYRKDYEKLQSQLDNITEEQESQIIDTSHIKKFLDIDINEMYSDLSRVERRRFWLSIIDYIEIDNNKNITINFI

B1: Int30 attB (dsDNA)
DNA 1: GTAATATGTTTGGATATGGGGAAGTGAATCAGTACAACCGCCACAGTACCCTCATGTCAGCC
DNA 2: GGCTGACATGAGGGTACTGTGGCGGTTGTACTGATTCACTTCCCCATATCCAAACATATTAC
For B1, the binding signal (Int30) was 1.29 fraction of Bxb1.

B2: Int30 attP (dsDNA)
DNA 1: ATAATAGTGTATATGGTAGAGAATTAAACCAGTTTAATACTCCACCATGTACACGCAGTGAG
DNA 2: CTCACTGCGTGTACATGGTGGAGTATTAAACTGGTTTAATTCTCTACCATATACACTATTAT
B2 was tested, and the binding signal (Int30) was 1.29 fraction of Bxb1.

B3: Int26 attP (dsDNA)
DNA 1: AAATATAACCTGTGTATTGAAACAAGGTGCTGATAAAACCCTTTCATAAACACAAGTAAATA
DNA 2: TATTTACTTGTGTTTATGAAAGGGTTTTATCAGCACCTTGTTTCAATACACAGGTTATATTT
For B3, the binding signal (Int26) was 0.204 fraction of Bxb1.

B4: Int29 attP (dsDNA)
DNA 1: CGTCACCTTGTTGGCGTAATTAGATTTACTCCAACAGGGTGATGACAAAGCTAATGAATTTT
DNA 2: AAAATTCATTAGCTTTGTCATCACCCTGTTGGAGTAAATCTAATTACGCCAACAAGGTGACG
For B4, the binding signal (Int29) was 2.92 fraction of Bxb1.

B5: Int4 attP (dsDNA)
DNA 1: CAAAAATTACAAAGTTTTCAACCCTTGATTTGAATTAGCGGTCAAATAATTTGTAATTCGTTT
DNA 2: AAACGAATTACAAATTATTTGACCGCTAATTCAAATCAAGGGTTGAAAACTTTGTAATTTTTG
B5 was tested, and the binding signal (Int4) was 1.85 fraction of Bxb1.

B6: Int26 attB (dsDNA)
DNA 1: AGAAATAGACCTTTCAACTGGACAAGGTGCTGATAAAACTATGCAGCAAGTCTTAAGTAAA
DNA 2: TTTACTTAAGACTTGCTGCATAGTTTTATCAGCACCTTGTCCAGTTGAAAGGTCTATTTCT
In the case of B6, the binding signal (Int26) is reported as 0.204 fraction of Bxb1.

B7: Int23 attP (dsDNA)
DNA 1: TATATAATTATTTGGACTAACATATAGTATCCACTTGGCTATTATTAGTTAGTCCAAATAAATA
DNA 2: TATTTATTTGGACTAACTAATAATAGCCAAGTGGATACTATATGTTAGTCCAAATAATTATATA
B7 was tested, and the binding signal (Int23) was 0.201 fraction of Bxb1.

B8: Int23 attB (dsDNA)
DNA 1: TATTCTAAGTAATGTAGTTTTACCACATCCACTAGGTCCGAGTAAACATAGAAATTCCCCT
DNA 2: AGGGGAATTTCTATGTTTACTCGGACCTAGTGGATGTGGTAAAACTACATTACTTAGAATA
In the case of B8, the binding signal (Int23) is reported as 0.201 fraction of Bxb1.

B9: Int29 attB (dsDNA)
DNA 1: TTTGTAGCCATTAGGCGCATTAGGTTGACGCCATTAAGCCCTAAAGCATCATTCGTCGAAAC
DNA 2: GTTTCGACGAATGATGCTTTAGGGCTTAATGGCGTCAACCTAATGCGCCTAATGGCTACAAA
With B9 the binding signal (Int29) was 2.92 fraction of Bxb1.

B10: Int4 attB (dsDNA)
DNA 1: TTCCAAAGAGCGCCCAACGCGACCTGAAATTTGAATAAGACTGCTGCTTGTGTAAAGGCGATGATT
DNA 2: AATCATCGCCTTTACACAAGCAGCAGTCTTATTCAAATTTCAGGTCGCGTTGGGCGCTCTTTGGAA
B10 was tested, and the binding signal (Int4) was 1.85 fraction of Bxb1.

From US20240409906, “INTEGRASES, LANDING PAD ARCHITECTURES, AND ENGINEERED CELLS COMPRISING THE SAME” (Asimov Inc., published 2024)
